From publication PMC4537477

Tests used:
[1] = target: histone H3-H4 heterodimer (human) (UniProt P68431); experiment: SEC; Superdex 200 10/300 GL; complex obtained at 0.5 mol/L NaCl; eluted at 14.38 mL, apparent molecular weight about 60 kDa; apparent stoichiometry also by Coomassie-stained SDS-PAGE
[2] = target: full-length human histone H3 (human) (UniProt P68431); experiment: as above

stoichiometry N [1] | stoichiometry N [2] | Substance
1 | – | N-terminal domain of human MCM2 (aa 63–154) (from UniProt P49736 63-154) (domain or fragment)
1 | – | globular domain of ASF1a (aa 1–157) (from UniProt Q9Y294 1-157) (domain or fragment)
– | 1 | full-length human histone H4 (from UniProt P62805 1-103) (natural protein)
